Patent US20240002497A1 (Merck Sharp & Dohme, published 2024)
Positions count from the first letter of the chain named. Numbers in names are those of the source.

B1: F010302383 (VHH)
VHH: EVQLVESGGGVVQPGGSLRLSCAASGPVFNINRMAWYRQAPGKQRELVAYVTPTGDISYADSVKGRFTISRGGSKRVYLQMNSLRPEDTALYYCRALLQPSSYSGTRTYWGQGTLVTVSS
B2: F010300948 (VHH)
VHH: EVQLVESGGGLVQPGGSLRLSCAASGPVFNINRMAWYRRAPGKQRELVASSTPGGSTNYADSVKGRFTISRDNAKRVYLQMNSLTPEDTAVYYCRWLLQPSIYDISRIYWGQGTLVTVSS
B3: F010300631 (VHH)
VHH: B2 VHH with R33S, S50Y, W96A, I108T
B4: F010300684 (VHH)
VHH: B2 VHH with I31W, R33S, W96A
B5: F010300477 (VHH)
VHH: B2 VHH with P27S, V28I, R33S, P53N, R95N, I108T
B6: F010300880 (VHH)
VHH: B2 VHH with S56D, I108T
B7: F010300900 (VHH)
VHH: B2 VHH with S56D
B8: F010300990 (VHH)
VHH: B2 VHH with S50Y, R95N, W96A
B9: F010301462 (VHH)
VHH: B2 VHH with S50Y, S56D, W96A, I108T
notes: vs F0103275B05: S27P, I28V, S33R, S50Y, N53P, S56D, N93R
B10: F010301643 (VHH)
VHH: EVQLVESGGGVVQPGGSLRLSCAASGRILRIGYMRWHRQGAGKQREFVARITDDSATDYADSVKGRFTISRDNAKNTVYLQMNSLRPEDTALYYCEALVTASVRGGSIHSGTYWGQGTLVTVSS
notes: also called F0103387G05(L11V, A14P, D23A, N82bS, N83R, V89L, R105Q)
B11: F010301646 (VHH)
VHH: B10 VHH with A23D, A41P
notes: also called F0103387G05(L11V, A14P, A41P, N82bS, N83R, V89L, R105Q)
B12: F010301645 (VHH)
VHH: B10 VHH with A23D, G40A
notes: also called F0103387G05(L11V, A14P, G40A, N82bS, N83R, V89L, R105Q)
B13: F010301644 (VHH)
VHH: B10 VHH with A23D, H37Y
notes: also called F0103387G05(L11V, A14P, H37Y, N82bS, N83R, V89L, R105Q)
B14: F010301639 (VHH)
VHH: EVQLVESGGGVVQPGGSLRLSCAASGSIFNINSMAWYRQAPGKQRELVASSTNGGSTNYADSVKGRFTISRDNAKRTVYLQMNSLRPEDTALYYCNALLQPSIYDISRTYWGQGTLVTVSS
notes: also called F0103275B05(R76_V78insT)(L11V, R39Q, T83R, V89L)
B15: F010301640 (VHH)
VHH: B14 VHH with Q39R
notes: also called F0103275B05(R76_V78insT)(L11V, T83R, V89L)

Molecular target: rhNav1.7α + β1-β2-β3 (rhesus monkey)
Assay: cell-based or functional assay

Row | Qpatch IC50 | Binder
1 | 0.003 µM | B1
2 | 0.058 µM | B2
3 | 0.173 µM | B3
4 | 0.212 µM | B4
5 | 1.19 µM | B5
6 | 0.122 µM | B6
7 | 0.036 µM | B7
8 | 0.101 µM | B8

Molecular target: huNav1.7α + β1 (human)
Assay: cell-based or functional assay

Row | Qpatch IC50 | Binder
9 | 0.022 µM | B1
10 | 0.315 µM | B2
11 | 0.073 µM | B3
12 | 0.202 µM | B4
13 | 0.096 µM | B5
14 | 0.027 µM | B6
15 | 0.196 µM | B7
16 | 0.249 µM | B8

Molecular target: T1, huNav1.7α (human, UniProt Q15858 1-1988)
T1 construct: HEK cells expressing the α subunit alone; also called HEKa; HEK huNav1.7α
Assay: binding FACS, HEKa cells

Row | EC50 | Binder
17 | 0.035 µM | B9

Molecular target: T2, huNav1.7α (human Nav1.7 alpha subunit, expressed without β subunits) (human, UniProt Q15858 1-1988)
T2 construct: also called HEK293 human Nav1.7α; HEKa Nav1.7α
Assay: binding FACS, HEKa cells

Row | Bmax | EC50 | Binder
18 | 100% | 0.0041 µM | B10
19 | 100% | 0.0044 µM | B11
20 | 100% | 0.0047 µM | B12
21 | 100% | 0.0057 µM | B13

Molecular target: T3, huNav1.7α+β1 (human, UniProt Q15858 1-1988; Q07699 19-218)
T3 construct: also called huNav1.7-beta1; HEKa/β1
Assay: binding FACS, HEKa/β1 cells

Row | EC50 | Binder
22 | 0.022 µM | B9

Molecular target: T4, huNav1.7α + β1 (human Nav1.7α co-expressed with Navβ1) (human, UniProt Q15858 1-1988; Q07699 19-218)
T4 construct: also called HEK293 human Nav1.7α + β1; HEKa/β1 Nav1.7α
Assay: binding FACS, HEKa/β1 cells

Row | EC50 | Binder
23 | 0.0034 µM | B10
24 | 0.0041 µM | B11
25 | 0.0042 µM | B12
26 | 0.005 µM | B13

Molecular target: T5, rhNav1.7α+β1-β2-β3 (rhesus monkey α subunit with human β …)
T5 construct: P2A cleaves it into α, β1, β2, β3; also called rhNav1.7-beta1-beta2-beta3
Assay: binding FACS, CHO FlpIn cells

Row | EC50 | Binder
27 | 0.023 µM | B9

Molecular target: T6, huNav157 chimera 14 + β1-β2-β3 (human)
T6 construct: Chimera of huNav1.7α (extracellular loops and transmembrane helices) and huNav1.5α (intracellular loops); also called Nav157ch14-β1-β2-β3; huNav157 chimera 14-beta1-beta2-beta3
Assay: binding FACS, HEK FlpIn cells

Row | EC50 | Binder
28 | 0.0036 µM | B10
29 | 0.0042 µM | B11
30 | 0.0046 µM | B12
31 | 0.0049 µM | B13

Molecular target: T7, huNav157 chimera 14 (human)
T7 construct: Chimera without β subunits; also called Nav157ch14
Assay: binding FACS, HEK FlpIn cells

Row | Bmax | EC50 | Binder
32 | 100% | 0.0037 µM | B10
33 | 100% | 0.0031 µM | B11
34 | 100% | 0.0039 µM | B12
35 | 100% | 0.0044 µM | B13

Molecular target: huNav1.7α + β1 on HEK cells (human, UniProt Q15858 1-1988; Q07699 19-218)
Assay: binding FACS, HEK cells (HEKa/b1)

Row | EC50 | Binder
36 | 0.094 µM | B14
37 | 0.065 µM | B15
